Data: patent US20130102031A1

T1: human IL-17a (human) (UniProt Q16552)
T1 sequence (looked up): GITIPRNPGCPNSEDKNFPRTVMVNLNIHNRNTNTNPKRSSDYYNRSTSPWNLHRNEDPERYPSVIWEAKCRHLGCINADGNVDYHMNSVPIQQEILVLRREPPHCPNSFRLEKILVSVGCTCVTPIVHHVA


What was measured:
βNGF (human) [1] = biological target: βNGF (human) (UniProt P01138); test: HTRF competition: test antibody titrated against biotinylated Tanezumab (Streptavidin-XL665) for cryptate-labelled βNGF, 665 nm/620 nm ratio, three parameter fit
human IL-17a (human) = biological target: T1, human IL-17a (human); test: KinExA 3000 solution equilibrium, N-curve analysis; human IL-17a on beads
βNGF (human) [2] = biological target: βNGF (human) (UniProt P01138); test: HTRF competition; test antibody titrated against biotinylated Tanezumab for labeled βNGF

Chain of UniProt P01138 (P01138 122-239 limits assumed): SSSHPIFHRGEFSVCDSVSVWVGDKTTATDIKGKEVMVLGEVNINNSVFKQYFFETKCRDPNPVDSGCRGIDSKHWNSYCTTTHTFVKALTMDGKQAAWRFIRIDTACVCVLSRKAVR

| IC50 (βNGF (human) [1]) [nM] | Kd (human IL-17a (human)) [nM] | fold more potent IC50 than the HC encoded by SEQ ID NO: 16 (βNGF (human) [2]) [fold] | Molecule |
| --- | --- | --- | --- |
| 4910 |  |  | NEG CNT (antibody) |
|  | 0.067 |  | anti-IL17a antibody containing the HC lacking the CDR3 insertion (encoded by SEQ ID NO: 29) (antibody, part only; not given: light chain and constant region, V domains shown, part only) VH: EVQLVESGGGLVQPGGSLRLSCAASGFTFSNHWMNWVRQTPGKGLEWVAAINEDGSEKYYVGSVKVRFTISRDNAKNSLYLQMNSLRVEDTAVYYCARDYYDILTDYYIHYWYFDLWGRGTLVTVSSASTKGPSVFPLAP |
| 181 |  | 6 | anti-NGF antibody containing the HC with a CDR1 insertion encoded by SEQ ID NO: 19 (antibody, part only; not given: light chain and constant region, V domains shown, part only) VH: QVQLVQSGAEVKKPGSSVKVSCKASGDTFSNYATGDTFSNYAISWVRQAPGQGFEWMGGIIPIFGIANYAQKFQGRVTITADESTSTAYMELSSLRSEDTAVYYCARGPEYYDYVWGSYRYNYFDYWGQGTLVTVSS |
